Reference: publication PMC5576923

Assays:
[1] = target: β-Arrestin1 (human (endogenous in Caco-2 and HCT116)) (UniProt P49407); test: co-IP; competition in cells: Caco-2 or HCT116 cells treated with 10 μM pep24 or 10 μM scrambled control peptide for 24 hr, then β-Arrestin1 immunoprecipitated and ARHGAP21 blotted
[2] = target: β-Arrestin1 (human (endogenous in Caco-2 and HCT116)) (UniProt P49407); test: proximity ligation; Duolink II red kit on fixed, permeabilised cells; PTEN-/- HCT116 cells transfected 24 hr with GFP-tagged EV or PTEN constructs, HCT116 cells as positive control; signal as AI units, n = 35 cells per condition in triplicate

Chain of β-Arrestin1 (human (endogenous in Caco-2 and HCT116)) (P49407 whole entry): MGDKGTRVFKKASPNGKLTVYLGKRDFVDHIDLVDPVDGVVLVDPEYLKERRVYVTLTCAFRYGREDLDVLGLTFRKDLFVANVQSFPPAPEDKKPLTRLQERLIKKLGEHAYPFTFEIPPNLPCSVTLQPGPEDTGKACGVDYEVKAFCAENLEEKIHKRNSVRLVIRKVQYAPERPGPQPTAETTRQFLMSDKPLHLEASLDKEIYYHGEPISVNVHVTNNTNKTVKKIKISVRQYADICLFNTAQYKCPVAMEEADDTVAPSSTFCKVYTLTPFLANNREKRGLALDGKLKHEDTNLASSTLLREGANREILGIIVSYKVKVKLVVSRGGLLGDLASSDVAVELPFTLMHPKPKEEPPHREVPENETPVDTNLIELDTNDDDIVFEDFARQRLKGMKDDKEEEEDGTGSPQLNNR
Chain of cell permeant β-Arrestin1-ARHGAP21 binding disruptor peptide pep24 (Q5T5U3 1331-1355): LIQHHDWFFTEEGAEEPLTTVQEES

Row | fold change of β-Arrestin1-associated ARHGAP21 (ADU), pep24 vs control peptide, Caco-2 cells [1] [fold change] | fold change of β-Arrestin1-associated ARHGAP21 (ADU), pep24 vs control peptide, HCT116 cells [1] [fold change] | PLA interaction AI [2] [AI units] | Substance
1 | 0.63 | 0.39 | – | cell permeant β-Arrestin1-ARHGAP21 binding disruptor peptide pep24 (from UniProt Q5T5U3 1331-1355)
2 | – | – | 38.3 | GFP-labeled isolated PTEN C2 domain (domain or fragment)
